Assay results as given in patent publication US20090099080A1 (UNIVERSITY OF MASSACHUSETTS, published 2009).

Target: T1, GST (UniProt P08515 1-218 = GST)
T1 construct: Control for the GST fusion baits; also called glutathione S-transferase (control)
Test: GST pull down of recombinant CypD, CypD immunoblot

T1 sequence (P08515 whole entry, the tested form may be a part): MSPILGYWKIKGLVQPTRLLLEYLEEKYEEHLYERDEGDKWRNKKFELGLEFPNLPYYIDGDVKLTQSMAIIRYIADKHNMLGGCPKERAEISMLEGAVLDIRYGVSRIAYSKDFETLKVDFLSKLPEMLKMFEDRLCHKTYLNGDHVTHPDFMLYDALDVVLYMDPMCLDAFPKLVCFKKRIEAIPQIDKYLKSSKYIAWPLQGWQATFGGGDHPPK

- binding result: no binding
B1: recombinant CypD (purified, in solution) (enzyme)
chain: not shown
